Assays:
[1] = molecular target: T1, recombinantly produced LEKTI Domain 6
T1 chain: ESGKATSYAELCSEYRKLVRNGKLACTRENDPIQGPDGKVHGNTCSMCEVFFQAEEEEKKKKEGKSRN

LEKTI domains 10-15 = molecular target: T2, LEKTI domains 10-15
T2 chain: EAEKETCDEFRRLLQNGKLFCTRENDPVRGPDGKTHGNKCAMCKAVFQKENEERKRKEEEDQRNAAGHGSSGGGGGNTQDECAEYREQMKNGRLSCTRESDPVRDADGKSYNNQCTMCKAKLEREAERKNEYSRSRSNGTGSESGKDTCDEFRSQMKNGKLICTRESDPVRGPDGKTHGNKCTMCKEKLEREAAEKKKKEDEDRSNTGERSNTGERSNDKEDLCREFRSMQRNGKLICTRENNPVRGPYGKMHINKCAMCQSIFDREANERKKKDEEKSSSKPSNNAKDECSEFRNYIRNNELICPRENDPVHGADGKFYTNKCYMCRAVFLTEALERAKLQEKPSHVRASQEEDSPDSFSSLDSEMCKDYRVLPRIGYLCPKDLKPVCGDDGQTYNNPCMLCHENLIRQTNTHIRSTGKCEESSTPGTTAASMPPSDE

B1: KLK7 (protein)
chain: IIDGAPCARGSHPWQVALLSGNQLHCGGVLVNERWVLTAAHCKMNEYTVHLGSDTLGDRRAQRIKASKSFRHPGYSTQTHVNDLMLVKLNSQARLSSMVKKVRLPSRCEPPGTTCTVSGWGTTTSPDVTFPSDLMCVDVKLISPQDCTKVYKDLLENSMLCAGIPDSKKNACNGDSGGPLVCRGTLQGLVSWGTFPCGQPNDPGVYTQVCKFTKWINDTMKKHR
Question: For B1, which “KLK7 activity (Suc-Arg-Pro-Tyr-p-Nitro-Anilide substrate, 405 nm)” value [1] is on record?
Answer: recombinantly produced LEKTI Domain 6 inhibits KLK7 in vitro about as well as LEKTI domains 10-15

Question: And the “KLK7 activity (Suc-Arg-Pro-Tyr-p-Nitro-Anilide substrate, 405 nm)” value (LEKTI domains 10-15)?
Answer: recombinantly produced LEKTI Domain 6 inhibits KLK7 in vitro about as well as LEKTI domains 10-15
